What was measured:
[1] = target: DRB1*03:01 HLA Class II antigen loaded in vitro with biotinylated CLIP peptide (human); test: Luminex bead assay, Streptavidin-PE detection of biotinylated CLIP loaded on the antigen
[2] = target: DRB5*01:01 HLA Class II antigen (K cell line host) loaded in vitro with biotinylated CLIP peptide (human); test: as above
[3] = target: DRB5*01:01 HLA Class II antigen expressed in a K cell line host (K562), lacking a CLIP peptide in the peptide binding groove (human); test: Luminex bead assay, Streptavidin-PE detection of biotinylated CLIP; no-peptide control beads

Chain of DRB1*03:01 HLA Class II antigen loaded in vitro with biotinylated CLIP peptide (human) (P04233 97-121 limits assumed, chain 3 of 3, other chains not shown): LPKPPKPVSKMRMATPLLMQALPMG

Substance “Anti-biotinylated CLIP (Streptavidin-PE, to detect the presence of the biotinylated CLIP) (from UniProt P22629 37-163)” has an MFI [1] of 2810 MFI, an MFI [2] of 4600 MFI and an MFI [3] of 840 MFI.
